Experiment: yeast display, Sf9 membrane polyspecificity reagent, FACS + sequencing; frameworks hold sequencing errors
Method in brief: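 Using colony PCR, genes from sorted yeast display clones were amplified, then sequenced on MiSeq at 2 × 250 and filtered by CDR length. The clones had been stained with 10% biotinylated, detergent-solubilized Sf9 membrane reagent for 1 hour at 4 °C and sorted by FACS into low and high (top ~1%) gates on anti-HA and streptavidin fluorescence. Polyreactivity labels come from the gate of origin.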

Row | Sequence | polyreactivity (PSR sort gate)
1 | QVQLVESGGGLVQAGGSLRLSCAASGRIFVKYAMGWYRQAPGKERELVAAIRSGGSTYYADSVKGRFTISRDNAKNTVYLQMNRLKPEDTAVYYCAAERNKHHYYTEPYDYWGQGTQVTVSS | low polyreactivity
2 | QVQLVESGGGLVQAGGSLRLSCAASGSIFYVYAMGWYRQAPGNERELVAVIRRGGSTKYADSVKGRFTISRDNAKNTVYLQMNSLKPEDTAVYYCNVVGYAYGWQYDYWGQGTQVTVSS | high polyreactivity
3 | QVQLVESGGGLVQAGGSLRLSCAASGFTFYQYAMGWYRQAPGKERELVASISWSGGRTYYADSVKGRFTISRDNAKKTVYFQKNSLKPEDTAVYYCAARAYRIAGYDYWGQGTQVTVSS | high polyreactivity
4 | QVQLVESGGGLVQAGGSLRLSCAASGNTFSYYAMGRYRQSPGKEREFVAAIRKSGASTYYADTVKGRFTISRDNAKNTVYLQINSLKPEDTALYYCAADGQVSYALGFDYWGQGTQVTVSS | high polyreactivity
5 | QVQLVESGGGLVQAGGSLRLSCAASGFTFHYYAMGWYRPAPGKERELVAAISRGGGNTYYADSVKGRFTISRDNAKNTVYLQMNSLKPEDTAVYYCAADSKYRFSHGLDYWGQGTQVTVSS | high polyreactivity
6 | QVQLVESGGGLVQAGGSLRLSCAASGFTFGRYVMGWYRQAPGKGRELVAAITSSGSRTYYADSVKGRFTISRDNAKNTVYLQMNSLKPEHTAVYYCAARVYWTPVYYWGQGTQVTVSS | high polyreactivity
7 | QVQLVESGGGLVQAGGSLRLSCAASGGTFKTYVMGWSRQEPGKERELVAVISGSGASTYYADSVKGRFTISRDNAKNTVYLQMNSLKPEDTAVYYCAARYAWGWSGYYYWGQGTQVTVSS | high polyreactivity
8 | QVQLVESGGGLVQAGGSLRLSCASSGITFNLNDMGWYRQAPGKERELVAAITSGGNTSYADSVKGRFTISRDNAKNTVYLQMNSLKPEDTAVYYCATEDFRTDTGMYYWGQGTQVTVSS | low polyreactivity
9 | QVQLVESGGGLVQAGGSLRLSCAASGSTFWLYAMGWYRQAPGKERELVAAIRSGDRTNYADSVKGRFTISRDNAKHTVYLQMNSLKPEDTAVYYCAVRRWGTSFVEDDYWGQGTQVTVSS | low polyreactivity
10 | QVQLVESGGGLVQAGGILRLSCAASGSTFTDSDMGWYRQAPGKERELVAAITSGGSTNYADSVKGRFTISLDNAKYTVYLPMNSLKPEDSAVYYCAAADADRKYDYWGQGTQVTVSS | low polyreactivity
11 | QVQLVESGGGLVQAGGSLRLSCAASGFIFTDNVMGWYRQAPGKERELVAAISRGGGSTYYADSVKGRFTISRDNAKNTDYLQMNSLKPEDTAVYYCAAPTARSRSERDYWGQGTQVTVSS | high polyreactivity
12 | QVQQQESGGGLVQAGGILRMSCAASGTIFSEANMGSYRQAPGKERELVATIGQGSTTNYADSVKGRFTISRDNAKNTVYLQMNSLKPEETAVYYCAVVNVDPVGFVYWGQGTQVTVSS | low polyreactivity
13 | QVQLVESGGGLVQAGGSLRLSCAASGRIFRYYAMGWYRQAPGKERELVAAISWSGGSTYYADSVKGRFTISRDNAKNTVYLQMNSLKPEDTAVYYCNAYIYRAVPYDYWGQGTQVTVSS | high polyreactivity
14 | QVQLVESGGGLVQAGGSLRLSCAASGFIFANNAMGWYRQAPGKEREWVAAITSRGGGTYYADSVKGRFTISRDNAKNTVYLQMNCLKPEDTAVYYCAVRTYRFRHWPKYDYWGQGNQVTVSS | high polyreactivity
15 | QVQLVESGGGLVQAGGSLSLSCAASGSNFSENTMGWYRQAPGKKRELVADITSGGSTNYADSVKGRFTISRDNAKNTVYLQMNSLKPEDTAVYYCAADYHGEYDYWGQGTLVTVSS | low polyreactivity
16 | QVQLVESGGGLVQAGGSLRLSCAASGRIFDVNAMGWYRQAPGKEREFVAAINSRGDSTYYADSVKGRFTISRDNAKNTVYLQMNSLKPEDTAVYYCNVRGYSYSYRFWRYDYWGQGTQVTVSS | high polyreactivity
17 | QVQLVESGGGLVQAGGRLRLSCAASGRIFKTNAMGWYRQAPGKERELVPAISKRGGRTYYADSVKGRFTISRDNAKNTVYLQMNSLKPEDTAVYYCATRYSGYSLGDYWGQGTQVTVSS | high polyreactivity
18 | QVQLVESGGGLVQAGGSLRLSCAASGRIFGPYAMGWYRPATGKERELVAAISSRGSSTYYADSVKGRFTISRDNAKNTVYLQMNSLKPEDTAVYYCAARDYLAYYWGPSLYTFDYWGQGTEVTVSS | high polyreactivity
19 | QVQLVESGGGLVQAGGSLRLSCAASGRTFNRNAMGWYRPAPGKERELVAAISRGGGGTFYADSVKGRFTISRDNAKNTVYLQMNSLKPEDTAVYYCAVWQDHYDWGQGTQVTVSS | low polyreactivity
20 | QVQLVESGGGLVQAGGSLRLSCAASGSTFGYNAMGWYRQAPGKERELVAAITWSGGSTYYADSVKGRFTISRDNAKNTVYLQMNSLKPEDTAVYYCAADDWYNSTWHYYYWGQGTQVTVSS | low polyreactivity
21 | QVQLVESGGGLVQAGGSLRLSCAASGRIFRYNAMGWYRQAPGKERELVATISRGGGSTYYADSVKGRFTISRDNAKNTVYLQMNSLKPEDTAVYYCAAVGYYLVKFDYWGQGTQVTVSS | high polyreactivity
22 | QVQLVESGGGLVQAGGSLRISCASSGRIFKINAMGWYRQAPGKERELVATITRDGRTYYADSVKGRFTISRDNAKKTVYLQMNSLKPDDTAVYYCNVRRAFSGWRGYDYWGQGTQVTVSS | high polyreactivity

Row | Sequence | polyreactivity (PSR sort gate)
23 | QVQLVESGGGLVQAGGSLRLSCAASGITFYVYAMGWSRQAPGKEREFVAAISTRDGTTYAYSVKGRFTISRDNAKNTVYLQMNSLKPEDTAVYYCAAAYYYDGQQGDFDYWGQGSQVTVSS | low polyreactivity
24 | QVQLVESGGGLVQAGGSLRLSCAASGFTLKYYAMGWYRQAPGKERELVAAISSGDSTNYADSVKGRFTISRDNAKNTVYLQMNSLKPEDTAVYYCNTRYPSSSYYYWGQGTQVTVSS | low polyreactivity
25 | QVQLVESCGGLVQAGASLRLSCAASGSTFKYYTMGWYIQSPGKERELVAAISFSGARTYYADSVKGRFTISRDNAKNNVYLQMNSLKPEDTAVYYCAKRATWYTVPREGYWGQGTLVTVSS | high polyreactivity
26 | QVQLVESGGGLVQAGGSLRLSCAAYGRTLRGYAMGWYRQAPGKERELVAALTWSGGSTYYADSVKGRFTISRDHAKNTVYLQMNSLKPEDTAVYYCNARSYPDLYDYWGQGTQVTVSS | low polyreactivity
27 | QVQLVESGGGLVQAGGSLRLTCAASGSTFNRYAMGWYRQAPGKERELVAAITSTGGTNYADSVKGRFTISLDNAKNTVYLQMNSLKPEDTAFYYCAKRWLRWRSNYWGQGTQVTVSS | high polyreactivity
28 | QVQLVDSGGGLVQAGGSLRLSCAASGTIILVYAMGWYRQAPGKERELVARITNGTGSTYYADSVKGRFTISRDNAKNTVYLQMNSLKPEDTAVYYCATGQGSSYRSGPRWYPNAFGYWGQVTQVTVSS | high polyreactivity
29 | QVQLVESGGGLVQAGGSLRLSCAASGRISRGYAMGWYRQAPGKERELVAAIDSDGDTNYADSVKGRFTISRDNAKNTVYLQMNSLKPEDTAVYYCNKDGAYKTAYKRWTLYDYWGQGTQVTVSS | low polyreactivity
30 | QVQLVESGGGLVQAGGSLRLSCAASGRTFGGNVMAWYRHAPGKERELVAAITWSGGSTYYADSVKGRFTISRDNAKNTVYVQMNSLKPEDTAVYYCNALWVWYRGSSVRWVGGYDYWGQGTQVTVSS | high polyreactivity
31 | QVQLVESGGGLVQAGGSLRLSCAASGITFRTNTMGWYRQAPGKERELVAAISRGGTSTYYADSVKGRFTISRDNAKNTVYLQMNSLKPEDTAVYYCAADTRFYSGRGTVSGDYWGQGTQVTVSS | low polyreactivity
32 | QVQLVESGGGLVQAGGSLRLSCAASGIIFTDNAMGWYRQAPGKARELVATISWSTDNTYYADSVKGRFTISRDNAKNTVYLQMNSLKPEDTAVYYCAAGWQIIQGSQYDYWGQGTQVTVSS | low polyreactivity
33 | QVQLVESGGGLVQAGGSLRLSCAASGFTFRYYVMGWSRQAPGKESELVAAICWSGGSTYYADSVKVRFTISRDNAKNTVYLQMNRLKPEDTAFYYCNARRYFRTSQQPLYDYWGQGTQVTVSS | high polyreactivity
34 | LVQVVESGGGLVQAGGSLRLSCAASGIFSRYARGWYRQAPGKERELVAAISNGGRTYYADSVKGRFTSARDNAKNTVYLQMNSLNPEDTAVYYCNKVRSPWYESWGQGTQVTVSS | high polyreactivity
35 | QVQLVESGGGLVQAGGSLRLSCAASGRTFKYNTMGWYRQAPGKEREFVAAINWSGGSTYSAASVKGRFTISRDNAKNTVYLQMNSLKPEDTAVYYCAARRVYLGEYDYWGQGTQVTVSS | high polyreactivity
36 | QVQLVESGGGLVQAGGSRRLSCAASGLTFANYVMGWYIQAPGKERELVAAISRSGGSTYYADSVKGRFTISRDNAKNTVYLQMNSLNPEDTAVYYCAAAALDPKGSRYDYWGQGTQVTVSS | low polyreactivity
37 | QVQLVESGGGLVQAGGSLRLSCAASGSILDYNTMGWYIQAPGKERELVAAIDDDSTYYADSVKGRFTISRDNAKNTVYLQMNSLKPEDTAVYYSAVDWYYGDTYGYYYWYDYWGQGTQVTVSS | high polyreactivity
38 | QVQLVESGGCLVQAGGSLRLSCAASGLIFLGYAMGWYRQAPGKERELVASIRTGGSTSYADSVKGRFTISRDNAKNTVYLQMYSLKPEDTAVYYCAADRGRPNLPGDYWGQGTQVTVSS | low polyreactivity
39 | QVQLVESGGGLVQAGGSLRLSCAASGITFSRNTMGWYRQGPGKERELVAAITYSGGRTYYADSVKGRFTISRDNAKNTVYLQMNSLKPEDTAVYYCARRGTGKYPYYQHYYWGQGTQVTVSS | high polyreactivity
40 | QVQLVESGGGLVQAGGSLRLSCAASGFTFYLYTMGWYRQAPGKERELVAAINYSGGRTYYADSVKGRFTISRDNAKNTVYLQMNSLKPEDTAVYYCYPRVKNLQAYDYWGQGTQVTVSS | high polyreactivity
41 | QVQLVESGGGLVQAGGSLRLSCAASGRTFTRYVMGWYRQAPAKEREVVAAISSSGGTYYADSVKGRFTISRDNAKNTVYLQMNSLKPEDTAVYYCAVGSKLSRSYGYYYWGQGTQVTVSS | high polyreactivity
42 | QVQLVESGGGLVQAGGSLRLSCAASGLIFIAYAMRWYRQAPGKERELVAAISSSGGSTYYADSVKGRFTISRDNAKNTVYLQMNSLKPEDTAVYYCAADRYAWGTGRYGYWGQGTQVTVSS | low polyreactivity
43 | QVQLVESGGGLVQAGGSLRLSCSASGFTIYYYTMGWYRQAPGKERELVAAITRSGGRTYYADSVKGRFTISRDNSKNTVYLQMISLKPEDPAVYYCAASTYNNFWYLGYGYWGQGTQVTVSS | high polyreactivity

From the nanobody polyreactivity screen of Harvey et al. (2022)
